Measurements reported in the MegaScale stability set (Tsuboyama et al. 2023).

B1: 5KPH (parent)
chain: EEKRQVKQVAKEKLLEQSPNSKVQVRRVQKQGNTIRVELELRTNGKKENYTVEVERQGNTWTVKRITRT

Variants of: B1
Assay: folding stability dG (cDNA display proteolysis); higher = more stable
Conditions: PBS, room temperature

Variant	folding stability dG
W61D	1.07 kcal/mol
W61C	2.68 kcal/mol
W61I	3.14 kcal/mol
W61H	2.59 kcal/mol
W61G	1.39 kcal/mol
W61E	0.848 kcal/mol
W61A	2.23 kcal/mol
W61F	3.74 kcal/mol
R56T	2.83 kcal/mol
R56L	3.84 kcal/mol
R56M	3.61 kcal/mol
R56Q	3.51 kcal/mol
R56H	3.38 kcal/mol
R56D	2.42 kcal/mol
R56C	3.59 kcal/mol
R56K	4.11 kcal/mol
R56A	3.25 kcal/mol
R56S	3.26 kcal/mol
R56N	2.97 kcal/mol
R56P	2.93 kcal/mol
R56Y	3.72 kcal/mol
R56W	4.17 kcal/mol
R56I	3.29 kcal/mol
R56F	3.83 kcal/mol

Variant	folding stability dG
R56E	2.88 kcal/mol
R56G	3.19 kcal/mol
R56V	3.24 kcal/mol
E55A	3.45 kcal/mol
E55W	3.92 kcal/mol
E55P	-0.38 kcal/mol
E55C	3.34 kcal/mol
E55Y	3.92 kcal/mol
E55S	3.56 kcal/mol
E55G	3.19 kcal/mol
E55T	3.7 kcal/mol
E55V	4.08 kcal/mol
E55K	3.19 kcal/mol
E55H	3.65 kcal/mol
E55D	3.2 kcal/mol
E55F	3.92 kcal/mol
E55Q	3.7 kcal/mol
E55M	3.88 kcal/mol
E55N	2.91 kcal/mol
E55I	4.11 kcal/mol
E55R	3.1 kcal/mol
E55L	3.54 kcal/mol
V52W	1.58 kcal/mol
V52Q	-0.464 kcal/mol

Variant	folding stability dG
V52L	3.48 kcal/mol
V52Y	1.78 kcal/mol
V52M	3.22 kcal/mol
V52T	1.61 kcal/mol
V52S	1.21 kcal/mol
V52I	3.65 kcal/mol
E53M	3.58 kcal/mol
E53N	2.78 kcal/mol
E53V	3.94 kcal/mol
E53Q	3.39 kcal/mol
E53S	3.33 kcal/mol
E53P	-0.812 kcal/mol
E53Y	4.21 kcal/mol
E53F	4.03 kcal/mol
E53C	3.34 kcal/mol
E53H	3.47 kcal/mol
E53R	2.69 kcal/mol
E53A	2.99 kcal/mol
E53I	4.15 kcal/mol
E53L	4.04 kcal/mol
E53G	2.14 kcal/mol
E53K	2.54 kcal/mol
E53T	3.62 kcal/mol
E53D	3.76 kcal/mol

Variant	folding stability dG
E53W	4.23 kcal/mol
T60K	3.99 kcal/mol
T60Q	4.23 kcal/mol
T60V	4.01 kcal/mol
T60N	4.07 kcal/mol
T60W	4.16 kcal/mol
T60G	4.12 kcal/mol
T60F	3.96 kcal/mol
T60H	4.02 kcal/mol
T60A	3.83 kcal/mol
T60D	3.77 kcal/mol
T60E	4.16 kcal/mol
T60P	1.45 kcal/mol
T60S	4.13 kcal/mol
T60L	3.63 kcal/mol
T60R	3.97 kcal/mol
T60Y	3.79 kcal/mol
T60M	4 kcal/mol
T60C	3.33 kcal/mol
T60I	4.11 kcal/mol
N59Y	3.82 kcal/mol
N59F	3.54 kcal/mol
N59K	3.73 kcal/mol
N59G	4 kcal/mol

Variant	folding stability dG
N59T	3.77 kcal/mol
N59M	3.92 kcal/mol
N59R	3.33 kcal/mol
N59C	3.22 kcal/mol
N59W	3.5 kcal/mol
N59V	3.42 kcal/mol
N59E	3.92 kcal/mol
N59S	3.62 kcal/mol
N59Q	3.77 kcal/mol
N59P	3.84 kcal/mol
N59D	4.01 kcal/mol
N59A	3.69 kcal/mol
N59H	3.62 kcal/mol
N59I	3.54 kcal/mol
N59L	3.68 kcal/mol
V54Y	2.94 kcal/mol
V54I	3.92 kcal/mol
V54Q	0.909 kcal/mol
V54K	1.28 kcal/mol
V54T	2.23 kcal/mol
V54R	0.035 kcal/mol
V54N	0.723 kcal/mol
V54A	2.62 kcal/mol
V54W	2.75 kcal/mol

Variant	folding stability dG
V54F	4.06 kcal/mol
V54S	1.63 kcal/mol
V54C	3.36 kcal/mol
V54M	3.85 kcal/mol
V54D	-0.632 kcal/mol
V54G	1.44 kcal/mol
V54H	0.815 kcal/mol
V54L	3.94 kcal/mol
V54E	1.33 kcal/mol
G58Q	3.5 kcal/mol
G58R	2.97 kcal/mol
G58K	3.4 kcal/mol
G58C	3.16 kcal/mol
G58I	2.86 kcal/mol
G58Y	3.15 kcal/mol
G58H	3.4 kcal/mol
G58A	3.33 kcal/mol
G58E	3.7 kcal/mol
G58W	3 kcal/mol
G58N	3.7 kcal/mol
G58T	2.84 kcal/mol
G58D	3.75 kcal/mol
G58F	3.43 kcal/mol
G58S	3.36 kcal/mol

Variant	folding stability dG
G58V	3.02 kcal/mol
G58L	3.33 kcal/mol
G58M	3.24 kcal/mol
G58P	2.25 kcal/mol
Q57K	3.83 kcal/mol
Q57A	3.81 kcal/mol
Q57P	2.19 kcal/mol
Q57F	3.88 kcal/mol
Q57N	3.9 kcal/mol
Q57I	4.25 kcal/mol
Q57H	3.82 kcal/mol
Q57V	4.18 kcal/mol
Q57G	3.16 kcal/mol
Q57C	3.53 kcal/mol
Q57M	3.89 kcal/mol
Q57E	4.17 kcal/mol
Q57D	4.07 kcal/mol
Q57R	3.73 kcal/mol
Q57T	4.03 kcal/mol
Q57S	3.89 kcal/mol
Q57Y	4.03 kcal/mol
Q57L	3.96 kcal/mol
Q57W	3.83 kcal/mol
